The values that follow come from US20030100069A1 (Human Genome Sciences, published 2003).

For assay [1], the target named is T1, F-TR8-615 (FLAG epitope-tagged TR8, residues 33-615 of FIGS. 1A-C) (human) (UniProt Q9Y6Q6).
T1 sequence: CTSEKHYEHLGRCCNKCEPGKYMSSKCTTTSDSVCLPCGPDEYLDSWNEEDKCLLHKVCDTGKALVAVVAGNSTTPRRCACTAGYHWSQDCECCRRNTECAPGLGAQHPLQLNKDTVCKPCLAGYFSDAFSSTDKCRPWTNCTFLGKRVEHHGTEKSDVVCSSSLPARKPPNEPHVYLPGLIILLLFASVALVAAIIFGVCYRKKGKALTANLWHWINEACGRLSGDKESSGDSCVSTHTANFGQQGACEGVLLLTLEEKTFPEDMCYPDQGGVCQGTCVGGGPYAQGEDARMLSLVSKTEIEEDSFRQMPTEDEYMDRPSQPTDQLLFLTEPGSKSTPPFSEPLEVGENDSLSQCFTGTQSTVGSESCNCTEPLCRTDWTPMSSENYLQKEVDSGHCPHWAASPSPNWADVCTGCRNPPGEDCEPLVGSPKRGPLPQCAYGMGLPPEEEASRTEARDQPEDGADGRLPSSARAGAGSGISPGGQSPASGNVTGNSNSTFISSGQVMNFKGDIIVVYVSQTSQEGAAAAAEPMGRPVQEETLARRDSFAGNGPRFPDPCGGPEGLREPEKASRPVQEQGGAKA
Put plainly: anti-FLAG co-immunoprecipitation of 35S-labeled TRAF from 293 lysates, PhosphorImager quantitation.

The target in assay [2] is T2, endogenous TRAF2 (of HeLa and 293 cells) (human, UniProt Q12933 2-501).
T2 construct: 293 is called a human embryonic kidney cell line; HeLa is a human line; Detected by western blot with anti-TRAF2 polyclonal antibodies; also called TNF receptor-associated factor 2
T2 sequence (looked up): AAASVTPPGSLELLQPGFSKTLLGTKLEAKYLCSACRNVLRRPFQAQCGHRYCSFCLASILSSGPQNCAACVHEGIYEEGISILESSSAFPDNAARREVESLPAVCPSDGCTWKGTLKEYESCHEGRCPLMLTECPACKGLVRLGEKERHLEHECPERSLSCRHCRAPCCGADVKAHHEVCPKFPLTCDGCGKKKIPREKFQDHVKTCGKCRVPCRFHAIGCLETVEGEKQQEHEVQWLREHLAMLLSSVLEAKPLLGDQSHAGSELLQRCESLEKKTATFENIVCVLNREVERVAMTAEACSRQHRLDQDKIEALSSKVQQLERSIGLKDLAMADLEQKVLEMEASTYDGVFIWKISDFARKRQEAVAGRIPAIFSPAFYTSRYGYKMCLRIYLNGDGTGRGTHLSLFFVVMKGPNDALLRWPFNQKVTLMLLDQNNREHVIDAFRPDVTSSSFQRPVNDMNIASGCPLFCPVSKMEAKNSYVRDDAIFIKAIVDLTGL
Put plainly: anti-FLAG co-immunoprecipitation from HeLa and 293 lysates, anti-TRAF2 western blot. Here is the method: Immunoprecipitations and JNK Kinase Assays—From transient transfected cells, lysates were prepared and immunoprecipitated using anti-FLAG-conjugated agarose or anti-JNK1 and protein A/G sepharose for 1 hr. Where indicated, ³⁵S-labeled proteins were added to the lysate prior to immunoprecipitation. Beads were collected by centrifugation and washed four times in lysis buffer followed by two washes in kinase buffer (20 mM TRIS, pH 8, 50 mM NaCl, and 1 mM DTT). For coimmunoprecipation, proteins were eluted in SDS-sample buffer, boiled, and subjected to SDS-PAGE. Analysis of JNK activity was performed using exogenously added GST-Jun(1-79) as a substrate as previously described (Haridas et al., J. Immunol. 160:3152-3162 (1998)). Quantitation of JNK activity and ³⁵S-labeled TRAF binding was analyzed using a PhosphoImager and Imagequant Software (Molecular Dynamics, Sunnyvale, Calif.).
TRAF2, TRAF5, and TRAF6 Interact with the C-Terminus of TR8—Since most of the TNFR family members utilize TRAFs as signaling components and that TR8 contains putative TRAF binding domains, we examined the ability for TR8 to interact with various TRAFs. […] After 24-36 hr, cell lysates were prepared and epitope-tagged receptors were immunoprecipitated with anti-FLAG conjugated-agarose. Coprecipitation of endogenous TRAF2 was detected by western blotting with anti-TRAF2 polyclonal antibodies. […] Membranes were also probed with anti-FLAG to insure precipitation of epitope-tagged receptors (data not shown).
(Immunoblotting shows a protein as a band on a membrane.)

As to in vitro translated 35S-labeled TRAF6, in assay [1], the fold increase in binding relative to vector transfected cells is 5 fold.

Turning to in vitro translated 35S-labeled TRAF5, the fold increase in binding relative to vector transfected cells in assay [1] was found to be 11 fold.

B1: F-TR8-530 (FLAG-tagged TR8 C-terminal deletion lacking 85 amino acids) (receptor, not shown: small tags and cut ends)
chain: CTSEKHYEHLGRCCNKCEPGKYMSSKCTTTSDSVCLPCGPDEYLDSWNEEDKCLLHKVCDTGKALVAVVAGNSTTPRRCACTAGYHWSQDCECCRRNTECAPGLGAQHPLQLNKDTVCKPCLAGYFSDAFSSTDKCRPWTNCTFLGKRVEHHGTEKSDVVCSSSLPARKPPNEPHVYLPGLIILLLFASVALVAAIIFGVCYRKKGKALTANLWHWINEACGRLSGDKESSGDSCVSTHTANFGQQGACEGVLLLTLEEKTFPEDMCYPDQGGVCQGTCVGGGPYAQGEDARMLSLVSKTEIEEDSFRQMPTEDEYMDRPSQPTDQLLFLTEPGSKSTPPFSEPLEVGENDSLSQCFTGTQSTVGSESCNCTEPLCRTDWTPMSSENYLQKEVDSGHCPHWAASPSPNWADVCTGCRNPPGEDCEPLVGSPKRGPLPQCAYGMGLPPEEEASRTEARDQPEDGADGRLPSSARAGAGSGISPGGQSPASGNVTGNSNS
notes: also called F-TR8 deletion mutant
Consider B1, for which, in assay [2], the binding result is “no binding”.

B2: F-TR8-330 (FLAG-tagged TR8 C-terminal deletion lacking 285 amino acids) (receptor, not shown: small tags and cut ends)
chain: CTSEKHYEHLGRCCNKCEPGKYMSSKCTTTSDSVCLPCGPDEYLDSWNEEDKCLLHKVCDTGKALVAVVAGNSTTPRRCACTAGYHWSQDCECCRRNTECAPGLGAQHPLQLNKDTVCKPCLAGYFSDAFSSTDKCRPWTNCTFLGKRVEHHGTEKSDVVCSSSLPARKPPNEPHVYLPGLIILLLFASVALVAAIIFGVCYRKKGKALTANLWHWINEACGRLSGDKESSGDSCVSTHTANFGQQGACEGVLLLTLEEKTFPEDMCYPDQGGVCQGTCVGGGPYAQGEDARMLSLVS
notes: The C-terminal limit is inferred from the construct name and the stated deletion of 285 residues; also called F-TR8 deletion mutant
On to B2, for which the binding result in assay [2] is “no binding”.

B3: F-TR8-427 (FLAG-tagged TR8 C-terminal deletion lacking 188 amino acids) (receptor, not shown: small tags and cut ends)
chain: CTSEKHYEHLGRCCNKCEPGKYMSSKCTTTSDSVCLPCGPDEYLDSWNEEDKCLLHKVCDTGKALVAVVAGNSTTPRRCACTAGYHWSQDCECCRRNTECAPGLGAQHPLQLNKDTVCKPCLAGYFSDAFSSTDKCRPWTNCTFLGKRVEHHGTEKSDVVCSSSLPARKPPNEPHVYLPGLIILLLFASVALVAAIIFGVCYRKKGKALTANLWHWINEACGRLSGDKESSGDSCVSTHTANFGQQGACEGVLLLTLEEKTFPEDMCYPDQGGVCQGTCVGGGPYAQGEDARMLSLVSKTEIEEDSFRQMPTEDEYMDRPSQPTDQLLFLTEPGSKSTPPFSEPLEVGENDSLSQCFTGTQSTVGSESCNCTEPLCRTDWTPMSSENYLQKEVDS
notes: The C-terminal limit is inferred from the construct name and the stated deletion of 188 residues; also called F-TR8 deletion mutant
For the molecule B3, in assay [2], the binding result is on record as “no binding”.

B4: in vitro translated 35S-labeled TRAF2 (protein, UniProt Q12933 2-501, looked up, species assumed)
TNF receptor-associated factor 2: T2 sequence (looked up)
modifications: 35S-labeled
Take B4: the fold increase in binding relative to vector transfected cells in assay [1] worked out at 145 fold.
